Here are results for 34 sequences from the Immune Epitope Database (IEDB).

Bounds are passed on as bounds.

For one test, the target named is HLA-A*03:01. The test can be described thus: IEDB peptide-MHC binding, purified MHC/direct/fluorescence; filed as Kd, often an IC50 or EC50 that approximates it; ≥ and ≤ were set here for values at or beyond the usual limits of such assays.
In the next test the target is HLA-A*02:02. Kind of test: IEDB peptide-MHC binding, purified MHC/competitive/radioactivity; filed as Kd, often an IC50 or EC50 that approximates it; ≥ and ≤ were set here for values at or beyond the usual limits of such assays.
A further test deals with HLA-A*02:06. The test is described as above.
For another test, the target named is HLA-A*02:03. Described as above.
Another test concerns the target HLA-A*02:01. The test can be described thus: IEDB peptide-MHC binding, purified MHC/direct/fluorescence; filed as Kd, often an IC50 or EC50 that approximates it; ≥ and ≤ were set here for values at or beyond the usual limits of such assays.
A further test deals with HLA-A*69:01. Described as above. As to conditions: source organism: Marburg virus - Musoke, Kenya, 1980.
The next test addresses HLA-A*01:01. The test can be described thus: IEDB peptide-MHC binding, purified MHC/competitive/radioactivity; filed as Kd, often an IC50 or EC50 that approximates it; ≥ and ≤ were set here for values at or beyond the usual limits of such assays. As to conditions: source organism: Dengue virus 1 Brazil/97-11/1997.
The target in the next test is HLA-B*27:05. Kind of test: IEDB peptide-MHC binding, purified MHC/direct/fluorescence; filed as Kd, often an IC50 or EC50 that approximates it; ≥ and ≤ were set here for values at or beyond the usual limits of such assays. Conditions: source organism: Mammarenavirus juninense.
Another test has as its target HLA-A*11:01. Described as above.
Another test deals with HLA-B*15:01. Described as above. Conditions: source organism: Homo sapiens.
The target of a further test is HLA-B*58:01. The description is as above. As to conditions: source organism: Homo sapiens.
[1] abbreviates: source organism: Vaccinia virus WR.
Where [2] appears, read: source organism: SARS coronavirus Tor2.
Where [3] appears, read: source organism: Mammarenavirus guanaritoense.
The mark [4] stands for this setting: source organism: Vaccinia virus Copenhagen.
Setting [5] is: source organism: Vibrio vulnificus.

RVTDMAPFK had a Kd with HLA-A*03:01 (source organism: Listeria monocytogenes) of 404 nM.

Take SIISLFYTFA: the figures for the Kd with HLA-A*02:02 (setting [1]), in the test with HLA-A*02:06 (setting [1]) and with HLA-A*02:03 (setting [1]) were 111 nM, 93.6 nM and 28.1 nM, respectively.

For TLNEDLLEI, the dissociation constant (Kd) with HLA-A*02:02 (setting [2]) is 1.45 nM; with HLA-A*02:06 (setting [2]), 56.3 nM; with HLA-A*02:03 (setting [2]), 2.24 nM.

On to ETVKMGAFM, for which the results for the Kd in the test with HLA-A*02:02 (setting [1]), with HLA-A*02:06 (setting [1]) and in the test with HLA-A*02:03 (setting [1]) were 15000 nM, at least 40400 nM and 7430 nM, respectively.

YCLDFLFDV: the dissociation constant (Kd) with HLA-A*02:02 (setting [3]) was 17300 nM; in the test with HLA-A*02:06 (setting [3]), at least 77000 nM; with HLA-A*02:03 (setting [3]), at least 78100 nM.

Consider NIVTFINDYA, for which the dissociation constant (Kd) with HLA-A*02:02 (setting [1]) was 61.8 nM; with HLA-A*02:06 (setting [1]) it was 351 nM; with HLA-A*02:03 (setting [1]), 245 nM.

For IVAMLLTHGA, the results for the Kd with HLA-A*02:02 (setting [1]), in the test with HLA-A*02:06 (setting [1]) and in the test with HLA-A*02:03 (setting [1]) were 1160 nM, 82.2 nM and 153 nM, respectively.

Regarding YLRLYIILA, the Kd is 8.26 nM with HLA-A*02:02 (setting [4]), 4180 nM with HLA-A*02:06 (setting [4]) and 52.4 nM with HLA-A*02:03 (setting [4]).

Consider DMLLNVQTL, for which the results for the Kd with HLA-A*02:02 (setting [1]), with HLA-A*02:06 (setting [1]) and in the test with HLA-A*02:03 (setting [1]) were 7400 nM, 13400 nM and 5070 nM, respectively.

For AMLAGTAVV, the Kd with HLA-A*02:01 (source organism: Mycobacterium tuberculosis) amounted to 5.9 nM.

Take RTWFHGSLY: the Kd in the test with HLA-A*03:01 (source organism: Cryptosporidium parvum) came out at 13.1 nM.

Turning to ALLTGSYTI, the Kd with HLA-A*69:01 turned out to be 6660 nM; with HLA-A*02:01 (source organism: Marburg virus - Musoke, Kenya, 1980) it was 0.5 nM.

As to NVKSKLLWFL, the figures for the Kd in the test with HLA-A*02:02 (setting [1]), in the test with HLA-A*02:06 (setting [1]) and with HLA-A*02:03 (setting [1]) were 2290 nM, at least 31000 nM and 633 nM, respectively.

Regarding TSITQKGIIF, in the test with HLA-A*01:01, the Kd came to 7350 nM.

On to CTINVNSLA, for which the Kd in the test with HLA-A*02:02 (setting [1]) stood at 1040 nM; with HLA-A*02:06 (setting [1]), 248 nM; with HLA-A*02:03 (setting [1]), 1610 nM.

As to STSPTRTWKV, the values for the dissociation constant (Kd) with HLA-A*02:02 (setting [1]), with HLA-A*02:06 (setting [1]) and in the test with HLA-A*02:03 (setting [1]) were 397 nM, 504 nM and 717 nM, respectively.

Turning to AVTLNRIKIA, the Kd worked out at 1720 nM in the test with HLA-A*02:02 (setting [1]), 2290 nM with HLA-A*02:06 (setting [1]) and 1290 nM with HLA-A*02:03 (setting [1]).

For KIDKLTFQI, the Kd in the test with HLA-A*02:02 (setting [1]) turned out to be 141 nM; in the test with HLA-A*02:06 (setting [1]), 41.9 nM; in the test with HLA-A*02:03 (setting [1]) it was 10600 nM.

On to PASKKESVI, for which the Kd with HLA-A*02:02 (setting [1]) is 1350 nM; in the test with HLA-A*02:06 (setting [1]) it was 10300 nM; with HLA-A*02:03 (setting [1]), 1760 nM.

Turning to NMWREILSNT, the Kd is 6060 nM with HLA-A*02:02 (setting [1]), 12000 nM with HLA-A*02:06 (setting [1]) and 56.1 nM with HLA-A*02:03 (setting [1]).

On to MLHNPTSET, for which the Kd in the test with HLA-A*02:02 (setting [1]) was 4210 nM; in the test with HLA-A*02:06 (setting [1]), at least 77100 nM; with HLA-A*02:03 (setting [1]) it was 184 nM.

For IIAVFDSKLI, the Kd with HLA-A*02:02 (setting [1]) came out at 758 nM; in the test with HLA-A*02:06 (setting [1]), 8510 nM; with HLA-A*02:03 (setting [1]) it was 595 nM.

In the test with HLA-B*27:05, RRVAHSSLY yielded a Kd of 170 nM.

Take DVNEEYTEAA: the results for the Kd with HLA-A*02:02 (setting [1]), with HLA-A*02:06 (setting [1]) and with HLA-A*02:03 (setting [1]) were at least 46300 nM, at least 59200 nM and at least 28800 nM, respectively.

With TQMGGWFQK, the values for the Kd in the test with HLA-A*03:01 (setting [5]) and with HLA-A*11:01 (setting [5]) were 848 nM and 43.9 nM, respectively.

In the case of RQDYRRSINV, the Kd with HLA-A*02:02 (setting [1]) came out at 1010 nM; with HLA-A*02:06 (setting [1]), 2220 nM; with HLA-A*02:03 (setting [1]) it was 375 nM.

In the case of IISTDQDTML, the Kd worked out at 451 nM with HLA-A*02:02 (setting [1]), 666 nM with HLA-A*02:06 (setting [1]) and 1810 nM in the test with HLA-A*02:03 (setting [1]).

With IADMGHLKY, the Kd is 3030 nM with HLA-A*03:01 (source organism: Homo sapiens), 2800 nM in the test with HLA-A*11:01 (source organism: Homo sapiens), 4090 nM with HLA-B*15:01 and 2000 nM in the test with HLA-B*58:01.

In the case of QMAGVEVRYI, the Kd with HLA-A*02:02 (setting [1]) was 0.208 nM; in the test with HLA-A*02:06 (setting [1]) it was 44.8 nM; with HLA-A*02:03 (setting [1]), 0.138 nM.

In the case of DVLPFDIKYI, the Kd with HLA-A*02:02 (setting [1]) was determined as 1200 nM; with HLA-A*02:06 (setting [1]), 1110 nM; with HLA-A*02:03 (setting [1]), 188 nM.

Turning to HILHAYCGI, the results for the Kd in the test with HLA-A*02:02 (setting [1]), with HLA-A*02:06 (setting [1]) and with HLA-A*02:03 (setting [1]) were 123 nM, 359 nM and 66.5 nM, respectively.

In the case of KVEKYLPEVI, the Kd with HLA-A*02:02 (setting [1]) turned out to be 12100 nM; in the test with HLA-A*02:06 (setting [1]) it was 734 nM; with HLA-A*02:03 (setting [1]), 12400 nM.

QIYLSDSDNI: the Kd with HLA-A*02:02 (setting [1]) was 1240 nM; in the test with HLA-A*02:06 (setting [1]), 14900 nM; with HLA-A*02:03 (setting [1]), 19600 nM.

SIGFEARIV: the Kd with HLA-A*02:02 (setting [1]) was determined as 10100 nM; in the test with HLA-A*02:06 (setting [1]) it was 1310 nM; with HLA-A*02:03 (setting [1]) it was 575 nM.

By Kd is commonly meant the equilibrium constant for the complex coming apart.
